Assay results taken from PMC8234983, “Unravelling the Complex Denaturant and Thermal-Induced Unfolding Equilibria of Human Phenylalanine Hydroxylase” (International Journal of Molecular Sciences, 2021).

B1: full-length human phenylalanine hydroxylase (PAHt, Met1-Lys452) (enzyme, UniProt P00439 1-452, looked up)
chain: MSTAVLENPGLGRKLSDFGQETSYIEDNCNQNGAISLIFSLKEEVGALAKVLRLFEENDVNLTHIESRPSRLKKDEYEFFTHLDKRSLPALTNIIKILRHDIGATVHELSRDKKKDTVPWFPRTIQELDRFANQILSYGAELDADHPGFKDPVYRARRKQFADIAYNYRHGQPIPRVEYMEEEKKTWGTVFKTLKSLYKTHACYEYNHIFPLLEKYCGFHEDNIPQLEDVSQFLQTCTGFRLRPVAGLLSSRDFLGGLAFRVFHCTQYIRHGSKPMYTPEPDICHELLGHVPLFSDRSFAQFSQEIGLASLGAPDEYIEKLATIYWFTVEFGLCKQGDSIKAYGAGLLSSFGELQYCLSEKPKLLPLELEKTAIQNYTVTEFQPLYYVAESFNDAKEKVRNFAATIPRPFSVRYDPYTQRIEVLDNTQQLKILADSINSEIGILCSALQKIK
notes: human phenylalanine hydroxylase (EC 1.14.16.1), full-length construction, residues Met 1-Lys 452; No Fe(II) was added to the recombinant protein; also called PAHt(1-452); full-length PAH
B2: double truncated human phenylalanine hydroxylase (PAHd, Gly103-Thr427; ΔN1-102/ΔC428-452) (domain or fragment, UniProt P00439 103-427, looked up)
chain: GATVHELSRDKKKDTVPWFPRTIQELDRFANQILSYGAELDADHPGFKDPVYRARRKQFADIAYNYRHGQPIPRVEYMEEEKKTWGTVFKTLKSLYKTHACYEYNHIFPLLEKYCGFHEDNIPQLEDVSQFLQTCTGFRLRPVAGLLSSRDFLGGLAFRVFHCTQYIRHGSKPMYTPEPDICHELLGHVPLFSDRSFAQFSQEIGLASLGAPDEYIEKLATIYWFTVEFGLCKQGDSIKAYGAGLLSSFGELQYCLSEKPKLLPLELEKTAIQNYTVTEFQPLYYVAESFNDAKEKVRNFAATIPRPFSVRYDPYTQRIEVLDNT
notes: lacks most of the regulatory and multimerization domains; essentially the catalytic domain; Residues 103-117 are missing in the 1J8T PDB file; also called PAHd(103-427); truncated PAHd

Tests used:
P00439 [1] = assay: AUC; sedimentation velocity, 25 °C, 45,000 rpm, 8 µM subunit, 0 M urea (native conditions); c(s) analysis
[2] = molecular target: the molecule itself; assay: as above
P00439 [3] = assay: AUC; sedimentation velocity, 25 °C, 45,000 rpm, 8 µM subunit, incubated overnight in 5.4 M urea; c(s) analysis
P00439 [4] = assay: AUC; sedimentation velocity, 25 °C, 45,000 rpm, 8 µM subunit, incubated overnight in 7.4 M urea; c(s) analysis

Protein	percent of total signal as aggregates (P00439 [1])	stoichiometry N [2]	percent of total protein signal as fast-sedimenting polydisperse species (aggregates) (P00439 [3])	percent of total signal as aggregates (P00439 [4])
B1	aggregates (6% total)	4	multiple species of fast sedimentation at a broad range of 10.2–27.9 S representing 98% of the total protein signal	The rest of the protein signal at this high urea concentration, 13%, corresponds to aggregates of fast sedimentation
B2	–	2	from 9.6 S to 92.4 S and accounting for 98.3% of the total protein signal	The remaining 40% of the signal are species with sedimentation coefficients from 5.4 S to 18.8 S representing aggregates
